We go through seven molecules from patent US20230105029A1 (CHIA TAI TIANQING PHARMACEUTICAL GROUP, published 2023).

Substitutions are numbered along the chain they refer to.

In test [1] the target is T1, cynomolgus monkey IL4Rα-his protein (cynomolgus monkey, UniProt A0A2K5V580 33-239).
T1 construct: Bought protein; also called Cynomolgus IL4Rα; Cyno-IL4Rα-his; not shown: his tag
Briefly: indirect ELISA, coated cyno IL4Rα-his. How it is done:
The anti-IL4Rα antibodies' cross-reaction with cynomolgus IL4Rα proteins or cal-IL4Rα-his proteins were measured. Briefly, 96-well micro plates were coated with 2 μg/ml cynomolgus IL4Rα-his protein (Sino biological inc., Cat #90897—C08H) or 0.2 μg/ml cal-IL4Rα-his protein (Custom made by Sino biological inc., Cat #BAX2) in carbonate/bicarbonate buffer (pH 9.6), 100 μl/well, for 2 hours at 37° C. ELISA plates were washed once with wash buffer (PBS+0.05% w/v Tween-20, PBST) and then blocked with 200 μl/well blocking buffer (5% w/v non-fatty milk in PBST) for 2 hours at 37° C. Plates were washed again and incubated with 100 μl/well serially diluted anti-IL4Rα antibodies of the disclosure or controls (0.004-66.7 nM, 5-fold serial dilution in 2.5% w/v non-fatty milk in PBST, starting at 66.7 nM) for 40 minutes at 37° C. […] After a final wash, plates were incubated with 100 μl/well TMB (Innoreagents). The reaction was stopped 3-10 minutes later at 25° C. with 50 μl/well 1M H₂SO₄, and the absorbance was read at 450 nm. Data was analyzed using Graphpad Prism software and EC₅₀ values were reported.
In general terms: ELISA stands for enzyme-linked immunosorbent assay.

The target in test [2] is T2, human IL4Rα expressed on 293F-IL4Rα cells (human, UniProt P24394 26-825).
T2 construct: whole, on cells; also called cell surface human IL4Rα
Briefly: flow cytometry on 293F-IL4Rα cells, blocked ligand biotin human IL4. How it is done: (§1) Then, 1×10⁵ cells per well in 96 well-plates were incubated in 100 μL of the anti-IL4Rα antibodies or controls of various concentrations (starting at 80 nM with a 4-fold serial dilution) in FACS buffer for 40 minutes on ice. The plates were washed twice with FACS buffer, and added and incubated for 40 minutes at 4° C. in dark with 100 μl/well 1.67 nM biotin-labeled human IL4 protein (Sino biological inc., Cat #11846-HNAE). The plates were washed twice with FACS buffer, and then added and incubated for 40 minutes at 4° C. in dark with 100 μl/well R-Phycoerythrin Streptavidin (1:500 dilution in FACS buffer, Jackson Immunoresearch, Cat #016-110-084). Cells were washed twice and resuspended in FACS buffer. Fluorescence was measured using a Becton Dickinson FACS Canto II-HTS equipment. Data was analyzed using Graphpad Prism software and IC₅₀ values were reported.
A general note: In flow cytometry, cells or beads pass a laser one at a time.

In test [3] the target is T3, recombinant human IL4Rα-his protein (in house made) (human, UniProt P24394 26-232, limits assumed).
T3 construct: also called Human IL4Ra-his
In words: capture ELISA: antibody captured on anti-IgG Fc plate, biotin human IL4Rα-his detected. How it is done: Plates were washed once with wash buffer (PBS+0.05% w/v Tween-20, PBST) and then blocked with 200 μl/well blocking buffer (5% w/v non-fatty milk in PBST) for 2 hours at 37° C. Plates were washed again and incubated with 100 μl/well serially diluted anti-IL4Rα antibodies of the disclosure, the benchmark or negative control hIgG (human immunoglobulin (pH4) for intravenous injection, Hualan Biological Engineering Inc.) (5-fold dilution in 2.5% w/v non-fatty milk in PBST, starting at 66.7 nM) for 40 minutes at 37° C., and then washed 4 times again. Plates containing captured anti-IL4Rα antibodies were incubated with biotin-labeled human IL4Rα-his protein (in house made with SEQ ID NO: 57, 0.14 nM in 2.5% w/v non-fatty milk in PBST, 100 μl/well) for 40 minutes at 37° C., washed 4 times, and incubated with streptavidin conjugated HRP (1:10000 dilution in PBST, Jackson Immuno Research, Cat #016-030-084, 100 μl/well) for 40 minutes at 37° C. After a final wash, plates were incubated with 100 μl/well ELISA substrate TMB (Innoreagents, Cat #TMB-S-002). The reaction was stopped in 10 minutes at 25° C. with 50 μl/well 1M H₂SO₄, and the absorbance was read at 450 nm. Data was analyzed using Graphpad Prism software and EC₅₀ values were reported.
For the capture ELISA, 96-well micro plates were coated with 2 μg/ml goat anti-human IgG (AffiniPure Goat Anti-Human IgG, Fcγ fragment specific, Jackson Immunoresearch, Cat #109-005-098) instead of goat anti-mouse IgG Fey fragment, 100 μl/well.

The target in test [4] is T3, recombinant human IL4Rα-his protein (in …). In words: competitive ELISA, blocks biotin-IL4 binding to coated IL4Rα-his.
Test [5] shares this target. In words: competitive ELISA, blocks biotin-IL4Rα-his binding to coated Benchmark (competitor). How it is done:
The ability of the anti-IL4Rα antibodies of the disclosure to block benchmark-human IL4Rα binding was measured in a competitive ELISA assay. Briefly, the benchmark was coated on 96-well micro plates at 2 μg/mL in PBS, 100 μl per well, and incubated overnight at 4° C. The next day, plates were washed with wash buffer (PBS+0.05% w/v Tween-20, PBST), and blocked with 5% w/v non-fatty milk in PBST for 2 hours at 37° C. tiring plate blocking, the anti-IL4Rα antibodies of the disclosure or controls were diluted with biotin labeled human IL4Rα-his proteins (prepared in-house with SEQ ID NO: 57, 0.55 nM in 2.5% w/v non-fatty milk in PBST), starting at 100 nM with a 4-fold serial dilution, and incubated at 25° C. for 40 minutes. After plate washing, the antibody/IL4Rα-his mixtures were added to benchmark coated plates, 100 μl per well. After incubation at 37° C. for 40 minutes, plates were washed using wash buffer. Then the plates were added and incubated with 100 μl/well streptavidin conjugated HRP for 40 minutes at 37° C. to detect biotin-labeled human IL4Rα-his bound to plates. Plates were washed again using wash buffer. Finally, TMB was added and the reaction was stopped using 1M H₂SO₄, and the absorbance was read at 450 nm. Data was analyzed using Graphpad Prism software and IC₅₀ values were reported.

The target in test [6] is T2, human IL4Rα expressed on 293F-IL4Rα …. In words: flow cytometry, blocks biotin-IL4 binding to 293F-IL4Rα cells. Here is the method:
as §1

For test [7], the target named is T3, recombinant human IL4Rα-his protein (in …). Briefly: capture ELISA, biotin-IL4Rα-his.

B1: mouse antibody C2C1A1A1 (antibody, V domains shown)
VH: EVQLVESGGGLVQPGGSLKLSCAASGFTFSTYGMSWVRQTPDKRLELVATINSNGGSTSYPDSVKGRFTISRDNAKNTLYLQMSSLKSEDTAMFYCARFFRFRNAMDYWGQGTSVTVSS
VL: DIQMTQSPASLSASVGETVTITCRTSENIYSYLAWYQQKQGKSPQFLVYNAKTLAEGVPSRFSGSGSGTQFSLNINSLQSEDFGSYYCQHYYGPPTWTFGGGTKLEIK
notes: Mouse hybridoma mAb; also called Mouse C2C1A1A1
As a reminder, the EC50 is the concentration needed to bring the measured effect to its halfway point. The term IC50 denotes the midpoint of a concentration-inhibition curve. For B1, the EC50 in test [1] is 0.33 nM; in test [3], 0.0262 nM. Moreover, the IC50 in test [2] was 0.44 nM; in test [4], 1.89 nM; in test [5] it was 0.04 nM.

B2: chimeric antibody C2C1A1A1 (antibody, human IgG4 S228P, kappa, V domains shown)
VH: B1 VH
VL: DIQMTQSPASLSASVGETVTITCRTSENIYSYLAWYQQKQGKSPQFLVYNAKTLAEGVPSRFSGSGSGTQFSLNINSLQSEDFGSYYCQHYYGPPTWTFGGGTKLEIKR
notes: Mouse variable domains on human IgG4/kappa; also called Chimeric C2C1A1A1; chC2C1A1A1
Turning to B2, the figures for the IC50 in test [6], in test [4] and in test [5] were 0.48 nM, 3.12 nM and 0.17 nM, respectively. Moreover, the EC50 came to 0.0549 nM in test [3] and 0.05 nM in test [7].

B3: mouse antibody C2B2F7B7 (antibody, V domains shown)
VH: B1 VH with S59N, F94Y, F102I
VL: B1 VL with T25A, N74K, S80P, P94T
notes: Mouse hybridoma mAb
In test [1], B3 had an EC50 of 108 nM. Also, the IC50 in test [2] was determined as 0.397 nM; in test [5] it was 0.72 nM.

B4: mouse antibody B8G11F2B7G5E8 (antibody, V domains shown)
VH: EVQLQQSGADLVRPGASVKLSCTASGFNIKDTYMHWVKQRPEQGLEWVGRIDPTNGYTIYASKFQGKATITADTSSNTAYMQLSSLTSGDTAVYHCVSRRPWFAYWGQGTLVTVSA
VL: DILMTQTPLSLPVSLGAQASISCRSSQSIVHSNGNTYLEWYLQKPGQSPKLLIYKVTNRFSGVPDRFSGSGSGTDFTLKISRVEAEDLGIYYCFQGSHVPYTFGGGTKLEIK
notes: Mouse hybridoma mAb; also called Mouse B8G11F2B7G5E8; mAb B8G11F2B7G5E8
Consider B4, for which the figures for the half-maximal effective concentration (EC50) in test [1], in test [3] and in test [7] were 0.29 nM, 0.143 nM and 0.21 nM, respectively. For the same molecule, the IC50 came out at 0.5 nM in test [6], 0.804 nM in test [2], 1.64 nM in test [4] and 0.02 nM in test [5].

B5: chimeric antibody B8G11F2B7G5E8 (antibody, human IgG4 S228P, kappa, V domains shown)
VH: B4 VH
VL: DILMTQTPLSLPVSLGAQASISCRSSQSIVHSNGNTYLEWYLQKPGQSPKLLIYKVTNRFSGVPDRFSGSGSGTDFTLKISRVEAEDLGIYYCFQGSHVPYTFGGGTKLEIKR
notes: Mouse variable domains on human IgG4/kappa; also called Chimeric B8G11F2B7G5E8; chB8G11F2B7G5E8
As to B5, the IC50 in test [6] turned out to be 0.36 nM; in test [4] it was 1.82 nM; in test [5] it was 1.52 nM. Further, the EC50 in test [3] came to 0.275 nM; in test [7] it was 0.32 nM.

B6: mouse antibody B1D2F7D3B5 (antibody, V domains shown)
VH: EVKLVESGGGLVKPGGSLKLSCAASGFTFSSYAMSWVRQTPEKRLEWVASISSGDSTYYLDSVKGRFTISRDNAMNILYLQMSSLRSEDTAVYYCERSGGSAPYWGQGTLVSVSA
VL: QIVLTQSPAIMSASPGEMVTISCSASSSVSYMYWYQQKPGSSPKPWIYRTSNLASGVPARFSGSGSGTSYSLTISSMEAEDAATYYCQQYHSFPLTFGAGTKLELK
notes: Mouse hybridoma mAb
Take B6: the binding result in test [1] is listed as “no binding (tested: 66.7 nM (highest concentration tested))”. In addition, the IC50 in test [2] came out at 0.787 nM; in test [5], 0.02 nM.

B7: mouse antibody B9D1D11F8D8 (antibody, V domains shown)
VH: B6 VH with M75R, M82V, V92M, S112T
VL: B6 VL with E17D, S30N
notes: Mouse hybridoma mAb
As to B7, in test [1], the binding result is on record as “no binding (tested: 66.7 nM (highest concentration tested))”. In addition, the IC50 in test [2] came to 0.748 nM; in test [5], 0.02 nM.
